In test [1] the target is T1, recombinant mouse ephrin B1-Fc (R & D) (mouse, UniProt P52795 30-229).
T1 construct: Bought protein (R & D); also called EB1; not shown: Fc part of the bought fusion protein is not described
T1 sequence (looked up): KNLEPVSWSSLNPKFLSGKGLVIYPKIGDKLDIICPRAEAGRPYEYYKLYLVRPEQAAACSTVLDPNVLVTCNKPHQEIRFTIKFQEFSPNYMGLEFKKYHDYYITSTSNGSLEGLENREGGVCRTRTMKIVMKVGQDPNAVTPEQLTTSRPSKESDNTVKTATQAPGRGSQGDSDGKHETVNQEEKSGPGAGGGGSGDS
Description: immunoblot; periplasmic fraction of the scFv, detected with anti c-Myc and anti-mouse peroxidase conjugate. The protocol:
(§1) Recombinant mouse proteins ephrin B1-Fc, mouse ephrin B2-Fc and human ephrin B3-Fc (R & D) were separated electrophoretically in polyacrylamide-SDS 10% gels and transferred onto nitrocellulose membrane (GE Healthcare). After blocking the membrane with PBS-3% skimmed milk powder for 1 hour, it was incubated with 1:5 diluted periplasmic fraction in PBS-3% powdered milk for 16 hours at 4° C. The secondary antibodies used were anti c-Myc (Sigma) at a 1:1000 dilution for 2 hours at room temperature and anti-mouse peroxidase conjugate (Sigma) diluted 1:5000 for 1 hour at room temperature. Visualization was performed by incubation with ECL reagent (ECL, “Enhanced Chemiluminescence”) (GE Healthcare).

In test [2] the target is T2, recombinant human ephrin B3-Fc (R & D) (human, UniProt Q15768 28-224).
T2 construct: Bought protein (R & D); also called EB3; not shown: Fc part of the bought fusion protein is not described
T2 sequence (looked up): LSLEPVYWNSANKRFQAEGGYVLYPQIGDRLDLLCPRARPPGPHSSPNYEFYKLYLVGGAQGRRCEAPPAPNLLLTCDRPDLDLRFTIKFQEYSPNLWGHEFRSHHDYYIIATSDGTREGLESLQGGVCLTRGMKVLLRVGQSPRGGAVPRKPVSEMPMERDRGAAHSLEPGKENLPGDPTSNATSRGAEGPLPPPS
Described as above. The method, then:
as §1

For test [3], the target named is T3, ephrin B2-Fc (extracellular region of ephrin B2 fused to the Fc domain of human IgG, expressed in mammalian … (human)).
T3 construct: extracellular domain; Antigen used for panning, ELISA and Biacore; also called extracellular region of the ephrin B2
T3 sequence (P52799 whole entry, the tested form may be a part): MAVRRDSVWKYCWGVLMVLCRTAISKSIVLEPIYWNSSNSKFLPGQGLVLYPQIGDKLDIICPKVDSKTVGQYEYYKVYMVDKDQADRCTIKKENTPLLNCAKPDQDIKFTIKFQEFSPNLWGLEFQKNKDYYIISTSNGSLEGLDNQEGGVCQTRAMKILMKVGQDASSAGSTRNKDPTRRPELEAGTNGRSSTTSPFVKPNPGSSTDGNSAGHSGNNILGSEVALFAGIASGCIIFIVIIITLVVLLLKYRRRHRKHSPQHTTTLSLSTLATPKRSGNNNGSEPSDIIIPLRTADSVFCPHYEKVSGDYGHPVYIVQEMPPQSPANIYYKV
The experiment in a line: SPR (Biacore X), ephrin B2-Fc immobilised on CM5 chip, scFv at 30, 20, 10 and 7.5 uM, Langmuir 1:1 model. The method, then:
(§2) The two selected scFv, B11 and 2B1, were characterized using various techniques. First we determined the antibodies affinity constants to the ephrin B2 by means of surface plasmon resonance technique on a Biacore X, with the extracellular region of the immobilized ephrin B2 and different dilutions of purified scFv. […] Then, it was analyzed, using the same technique, the capacity of the antibodies to compete for the binding of ephrin B2 to its natural receptor Eph B4. To this end, Eph B4-Fc was immobilized on a chip and the binding to ephrin B2 was measured in the presence of different concentrations of B11 or 2B1. […] However, the 2B1 antibody has no blocking effect (FIG. 5).
(§3) To study the affinity constants of the scFv was used the technique of surface plasmon resonance with the BIAcore X equipment (BIAcore). The ephrin B2-Fc was covalently bound to CM5 chip surface (GE Healthcare) upon activation of the carboxyl groups of the dextran matrix of the chip with 0.4 M EDC (1-ethyl-3-(-dimethylaminopropyl)-carbodiimide) and 0.1 M NHS(N-hydroxysuccinimide) in a 1:1 ratio for 7 minutes at a flow rate of 10 μl/minute. The ephrin B2-Fc protein was diluted to 10 μg/ml in 10 mM sodium acetate at pH 4 and 30 μl of this solution was passed over the chip surface at a flow rate of 10 μl/min in HBS-EP buffer (10 mM HEPES pH 7.4, 150 mM NaCl, 3 mM EDTA, 0.005% surfactant P20) (GE Healthcare). […]

In test [4] the target is T3, ephrin B2-Fc (extracellular region of …). The experiment in a line: SPR (Biacore X), ephrin B2-Fc immobilised on CM5 chip, scFv at 0.4, 0.2, 0.1, 0.05 uM, Langmuir 1:1 model. The protocol: as §2, §3
For test [5] the target is unchanged. The experiment in a line: SPR competition: serial dilutions of scFv mixed with 0.2 uM ephrin B2-Fc, injected over immobilised Eph B4. The method, then: A. Graph showing the percent of binding of ephrin B2 to Eph B4. Binding inhibition tests of ephrin B2 to Eph B4 in the presence of scFv anti-ephrin B2 by surface plasmon resonance. Serial dilutions of scFv B11 (•) or 2B1 (∘) were mixed with ephrin B2 and injected over Eph B4 immobilized on a chip. The relative amount of ephrin B2 bound to Eph B4 was measured immediately after injection of each sample and plotted as a function of the concentration of scFv. […] B. The scFv B11 is capable of blocking the interaction between ephrin B2 and Eph B4 receptor in a cellular assay. Analysis of tyrosines phosphorylation of the Eph B4 receptor in HUVEC cells in response to stimulation with ephrin B2 overexpressed on the surface of HEK293 cells. HUVEC and HEK293 cells overexpressing ephrin B2 were cocultured for 20 minutes in the presence or absence of anti-ephrin B2 scFv. After Eph B4 receptor immunoprecipitation, it was analyzed the total amount of this protein (lower panel) and its level of phosphorylation (upper panel) by immunoblot.
The ability of scFv to inhibit the binding of ephrin B2 to its EphB4 receptor was analyzed by surface plasmon resonance competitive binding assay. Soluble Eph B4 (R&D) was conjugated to a CM5 chip (GE Healthcare) using the same protocol described above. […]

B1: scFv 2B1 (human anti-ephrin B2 single chain variable fragment) (scFv)
scFv: QVQLVQSGGGLVQPGRSLRLSCAASGFTFDDYAMHWVRQAPGKGLEWVSGISWNSGSIGYADSVKGRFTISRDNAKNSLYLQMNSLRAEDTALYYCARGHRTSDAFDIWGQGTMVTVSSGGGGSGGGGSGGGGSQPVLTQPPSVSLAPGKTARITCGGDSIGLKSVHWYQQKPGQAPVLVMSSDSDRPSGIPDRFSGSNSGNTATLTITRVEAGDEADYYCQVWDSSSDHMVFGGGTKLTVLGQPKAAPSAAALEDYKDDDDKHHHHHH
notes: Expressed from pET28b in the E. coli periplasm with a histidine tail; also called clone 2B1; 2B1 antibody
Consider B1, for which the binding result in test [1] and in test [2] was “no binding” each time. The molecule further had a Kd in test [3] of 630 nM.

B2: scFv B11 (human anti-ephrin B2 single chain variable fragment) (scFv)
scFv: QVQLVQSGAEVKKPGASVRLSCEASGYTFTDYYIHWVRQAPGQGLEWMGWMNPSSGNTGYAQKFQGRVTMTRNTSISTAYMELSSLRSEDTAVYYCARDITGTATGFDYWGQGTLVTVSSGGGGSGGGGSGGGGSEIVLTQSPLSLPVTLGQPASISCRSSQSLLHSNGYNYLDWYLQKPGQSPQLLIYLGSNRASGVPDRFSGSGSGTDFTLKISRVEAEDVGVYYCMQGLLSPVTFGQGTRLDIKRTVAAPTAAAEQKLISEEDLNGAALEHHHHHH
notes: Expressed from pET28b in the E. coli periplasm with c-myc and a histidine tail; also called clone B11; B11 antibody
Regarding B2, in test [4], the Kd came out at 110 nM. The binding result in test [1] and in test [2] was “no binding” each time. Also, in test [5], the half-maximal inhibitory concentration (IC50) turned out to be 300 nM.

These data come from patent US20130287795A1 (FUNDACION CENTRO NACIONAL DE INVESTIGACIONES ONCOLOGICAS, published 2013).
